Experimental findings from the nanobody polyreactivity screen of Harvey et al. (2022) are described below.

This series can be described thus: yeast display, Sf9 membrane polyspecificity reagent, FACS + sequencing; frameworks hold sequencing errors. The gist of the method: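 Using colony PCR, genes from sorted yeast display clones were amplified, then sequenced on MiSeq at 2 × 250 and filtered by CDR length. The clones had been stained with 10% biotinylated, detergent-solubilized Sf9 membrane reagent for 1 hour at 4 °C and sorted by FACS into low and high (top ~1%) gates on anti-HA and streptavidin fluorescence. Polyreactivity labels come from the gate of origin.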
For the sequence “QVQLVESGGGLVQAGGSLRLSCAASGSLFYNNAKGWYRQAPGKERELVAAIRSTGTRTYYADSVKGRFTISRDTAKNTVYLQMNSLKPEDTAVYYCAVGDYGLWSYDYWGQGSQVTVSS”, the “polyreactivity (PSR sort gate)” value was “low polyreactivity”.

Take “QVQLVESGGGLVQAGGSLRLSCAASGSMFITYTMGWYRQAPGKERELVAAITWDGGSTYYADSVKGRFTISRDNAKNTVYLQMNSLKPEDTAVYYCAKDVILVWPYATGRDYWGQGTQVTVSS”: the “polyreactivity (PSR sort gate)” value is recorded as “low polyreactivity”.

With “QVQLVESGGGLVQAGGSLRLSCAASGSNFAGYAMGWYRPAPGKERALGAAISWSGGSTYYADSVKGRFTISRDNAKNTVYLQINSLKPEDTAVYYCNALRYGWKYNYWGQGTQVTVSS”, the “polyreactivity (PSR sort gate)” value was “high polyreactivity”.

In the case of “QVQLVESGGGLVQAGGSLRLSCAASGSNFDAYAIGWYRQAPGKERELVASISIGGSTNYADSVKGRFTISRDNAKNTVYLQMNSLKPEDSAVYYCAAYVYYTYPSGTVYSVSYIYDYWGQGTQVTVSS”, the “polyreactivity (PSR sort gate)” value is “low polyreactivity”.

For “QVQLVESGGGLVQAGGSLRLSCAASGSNFFSNAMGWYRQAPGKERELVAAITSTGGSTYYADSVKGRFTISRDNAKNTVYLQMNSLKPEVTAVYYCAAASRRGYYYWGQGTQVTVSS”, the “polyreactivity (PSR sort gate)” value is recorded as “high polyreactivity”.

For the sequence “QVQLVESGGGLVQAGGSLRLSCAASGSNFFVYAMGWYRQAPGKERELVASIRWRGSSTYYADSVKGRFTISRDNAKNPVYLQMNSLKPEDTAVYDCAATSYNGYGYWGQGTQVTVSS”, the “polyreactivity (PSR sort gate)” value is “high polyreactivity”.

Regarding “QVQLVESGGGLVQAGGSLRLSCAASGSNFGYNAIGWYRKAPGKEREFVAGISWSGGRTYYADSEKGRFTISRDNAKNTVYLQMNSLKPEDTAVYYCAAPSRPAPRFDYWGQGTQVTVSS”, the “polyreactivity (PSR sort gate)” value was “low polyreactivity”.

In the case of “QVQLVESGGGLVQAGGSLRLSCAASGSNFHYNAMGWYRQAPGKERELVAAIRWGGGSTFYADSVKGRFTISRDNAKNTVYLQMNSLKPEDTAVYYCAADYWYETRDFTFFDLYVSYEYWGQGTQVTVSS”, the “polyreactivity (PSR sort gate)” value was “low polyreactivity”.

In the case of “QVQLVESGGGLVQAGGSLRLSCAASGSNFIWYVMGWYRQAPGKEREFVAAINWRGTSTYYADSVKGRFTISRDNAKNTVYLQMNSLKPEDTAVYYCAARVTYRGRAYDYWGQGTQVTVSS”, the “polyreactivity (PSR sort gate)” value is reported as “high polyreactivity”.

Turning to “QVQLVESGGGLVQAGGSLRLSCAASGSNFKSYAKGWYRQAPGKERELVAAITYRGGSTYYADSVKGRFTISRDNAKNTVSLQMNSLKPEDTAVYYCAADYQSVGGAEYDYWGQGTQVTVSS”, the “polyreactivity (PSR sort gate)” value is given as “high polyreactivity”.

As to “QVQLVESGGGLVQAGGSLRLSCAASGSNFLFNAMGWYRQAPGKERELVAAINRDDSTYYADSVKGRFTISRDNAKNTVYLQMNSLKPEDTAVYYCARDYRYTIPYDYWGQGTQVNVSS”, the “polyreactivity (PSR sort gate)” value is given as “low polyreactivity”.

For “QVQLVESGGGLVQAGGSLRLSCAASGSNFLSYAMGWYRQAPGKERELVAAITGSGGNTYYADSVKGRFTISRDNAKHTVYLQMKSLKPEDTAVYYCSAVATRSNYWRGFYYWGQGTKVTVSS”, the “polyreactivity (PSR sort gate)” value is “high polyreactivity”.

Turning to “QVQLVESGGGLVQAGGSLRLSCAASGSNFPINAMGWYRQAPGKERELVAAISWRTGSTNYADSVKGRFTISRDNAMNTVYVQMNSLKPEDTAVFYCAASYATTRQRWLDYWGQGTQVTVSS”, the “polyreactivity (PSR sort gate)” value is reported as “high polyreactivity”.

As to “QVQLVESGGGLVQAGGSLRLSCAASGSNFQVNAMGWYRQAPGKERELVASIDSSGGSTYYADSVKGRFTISRDNAKNTVYLQMNSLKPEDTAVFYCAAEYHHYYYYWGEYWGQGTQVTVSS”, the “polyreactivity (PSR sort gate)” value is given as “low polyreactivity”.

As to “QVQLVESGGGLVQAGGSLRLSCAASGSNFRANAMGWYRQATGKERELVAAISKSGGSTYYADSVKGRFRISRDNAKNTVYLQMNSLKPEDTGVYYCAARTTYLYGMYYWGQGTQVTVSS”, the “polyreactivity (PSR sort gate)” value is on record as “low polyreactivity”.

Consider “QVQLVESGGGLVQAGGSLRLSCAASGSNFRYYAMGWYRQAPGTERELVADISSGGSTYYADSVKGRFTISRDNAKNTVYLQMNRLKPEDTAVYYCKADYYAYPWTNDYWGQGTQVTVSS”, for which the “polyreactivity (PSR sort gate)” value is “high polyreactivity”.

Consider “QVQLVESGGGLVQAGGSLRLSCAASGSNFSSYALGWYRQAPGKERELVAAITSGGSTYYADSVKARFTISRDNAKNTVYLQMNSLKPEDTAVYYCNADISRDNDFDYWGQGTQVTVSS”, for which the “polyreactivity (PSR sort gate)” value is given as “low polyreactivity”.

On to “QVQLVESGGGLVQAGGSLRLSCAASGSNFSSYAMGWYREAPGKERELVAAIDGSGGSTYADSVKGRFTISRDNAKNTVYLQMNSLKPEDTAVYYCAVDSFLVYSAVRPYDYWGQGTQVTVSS”, for which the “polyreactivity (PSR sort gate)” value was “low polyreactivity”.

As to “QVQLVESGGGLVQAGGSLRLSCAASGSNFSTYVMGWYRQAPGKERELVATISASDGSTYYADSVKGRFTISRDNAKNTVYLQMNSLKPEDSAVYYCAADTQEYRPTYDYWGQGTQVTVSS”, the “polyreactivity (PSR sort gate)” value was “low polyreactivity”.

For “QVQLVESGGGLVQAGGSLRLSCAASGSNFSYYDMGWYRQAPGKERELVAAISWNGGTTYYADSVKGRFTISRDNAKNTVYLQMNSLKPEDTAVYYCAATWDFYWAPYDSWGQGTQVTVSS”, the “polyreactivity (PSR sort gate)” value was “low polyreactivity”.

As for “QVQLVESGGGLVQAGGSLRLSCAASGSNFSYYTMGWYRQAPGKERELVAAISTSGGSTYYADSVKGRFTISRDNAKNTVYLQMNSLKPEDTAVYYCAARYGRYYKYNYWGQGTQVTVSS”, the “polyreactivity (PSR sort gate)” value is “high polyreactivity”.

Regarding “QVQLVESGGGLVQAGGSLRLSCAASGSNFTQYAMGWYRQAPGTERELVAAISSGTRTYYADSVKGRFTISRDNAKNTVYVQMNSLKPEDTAVYYCAARYRSYFYWSGYWGHGTQVTVSS”, the “polyreactivity (PSR sort gate)” value was “low polyreactivity”.

As to “QVQLVESGGGLVQAGGSLRLSCAASGSNFTSYAMGWYRQAPGKERELVAAISKSGGSTYYADSVKGRFTISRDNAKNTVYLQMNSLKPEDTAVFYCAARYNVRSYTTSRFDYWGQGTQVTVSS”, the “polyreactivity (PSR sort gate)” value is given as “low polyreactivity”.

“QVQLVESGGGLVQAGGSLRLSCAASGSNFTVYAMGWYRQAPGKDGELVAAISYNGGCTYYADSVKGRFTISRDNAKNTVYLQMNSLKPEDTAVYYCAARYRDRGRRAEYEYWGQGTQVTVSS”: the “polyreactivity (PSR sort gate)” value is recorded as “high polyreactivity”.

On to “QVQLVESGGGLVQAGGSLRLSCAASGSNFVPYTMGWYRQAPGKERELVASISYSVGTTYYADSVKGRFTISRDNAKNTVYLQMNSLKPEDTAVYYCAADWDESYSYRRYRHYDYWGQGTQVTVSS”, for which the “polyreactivity (PSR sort gate)” value is recorded as “low polyreactivity”.

Take “QVQLVESGGGLVQAGGSLRLSCAASGSNFVYNAMGWYRPAPGKERELVAAITGRVGSTYYADSVKGRFTISRDNAKNTVYLQMISLKPEDTAVYYCAARSYFKWWYAMDYWGQGTQVSVSS”: the “polyreactivity (PSR sort gate)” value is on record as “high polyreactivity”.

For the sequence “QVQLVESGGGLVQAGGSLRLSCAASGSNFYFYAMGWYRQAPGKERELVAAISFTDTSTYYADSVKGRFTISRDNAKNTVYLQMNSLKPEDTAVYYCAADFTQYYYWTRYEYWGQGTQVTVSS”, the “polyreactivity (PSR sort gate)” value is “high polyreactivity”.

Take “QVQLVESGGGLVQAGGSLRLSCAASGSNIGWNTMGWYRQAPGKERELVAAITSGGRTYYADSVKGRFTISRDNAKNTVYLQINSLKPEDTAVYYCKAVVRHTYRRFDYWGQGTQVTVSS”: the “polyreactivity (PSR sort gate)” value is listed as “high polyreactivity”.

In the case of “QVQLVESGGGLVQAGGSLRLSCAASGSNIGWYAMGSYRQAPGKERELVAAISSSDGSTYYADSVKGRFTISRDNAKNTVYLQMNSLKPEDTAVYYCATDSDFTYAQYDYWGQGTQVTVSS”, the “polyreactivity (PSR sort gate)” value is “low polyreactivity”.

Turning to “QVQLVESGGGLVQAGGSLRLSCAASGSNISNYVMGWYRQAPWKERELVAAITRRGGRTYYADSVKGRFTISRDYAKNTFYLQMNSLKPEDTAVYYCAKRHVGSRYLFEYWGQGTQVTVSS”, the “polyreactivity (PSR sort gate)” value was “low polyreactivity”.

On to “QVQLVESGGGLVQAGGSLRLSCAASGSNITTYAMGWYRQAPGKERELVAAITDTSSTNYADSVKGRFTISRDNAKNTVYLQMNSLKPEVTAVYYCAVDLGYEYDWGQGTQVTVSS”, for which the “polyreactivity (PSR sort gate)” value was “low polyreactivity”.

Take “QVQLVESGGGLVQAGGSLRLSCAASGSNIYVYAMGWYRQAPGKERELVAAISSSSDSTYADSVKGRFTISRDNAKNTVYLQMNSLKPEDTAVYYCNKKNAVYFAYDYWGQGTQVTVSS”: the “polyreactivity (PSR sort gate)” value is “low polyreactivity”.

As for “QVQLVESGGGLVQAGGSLRLSCAASGSNSSFYAMGWYRQAPGKERELVAGITSGGSTNYADSVKGRFTISRDNAKNTVYLQLNSLKPEDTAVYYCAAERTPSFRAYDYWGQGTLVTVSS”, the “polyreactivity (PSR sort gate)” value is recorded as “low polyreactivity”.

As to “QVQLVESGGGLVQAGGSLRLSCAASGSNYSGYTMGWYRQAPGKERELVAAISYRGGRTYYADSVKGRFTISRDNAKNTVYFLMNSLKPEDTAVYYCNAAPYITRRHDYWGQGTLVTVSS”, the “polyreactivity (PSR sort gate)” value is recorded as “high polyreactivity”.

For “QVQLVESGGGLVQAGGSLRLSCAASGSNYYVYPMGWYRQAPGKERELVATISTGGSTYYADSVKGRFTISRDNAKNTVYLQMNSLKPEDTAVYYCNAQITPRYWGGYDSWGQGTQVTVSS”, the “polyreactivity (PSR sort gate)” value was “low polyreactivity”.

In the case of “QVQLVESGGGLVQAGGSLRLSCAASGSPFFRNAMGWYRPAPGTERELVADISASGGSTYYADSVKGRFTLSRDNAKNTVNLQMNSLKPEDTAVYSCNALYIYSYNYLTMDYWGQGTQVTVSS”, the “polyreactivity (PSR sort gate)” value was “low polyreactivity”.

Regarding “QVQLVESGGGLVQAGGSLRLSCAASGSPFSSYVMGWYRQAPGTERELVAAISSIGGSTYSADSVKGRFTISRDNAKNTVFLQLNSLKPEDTAVYYCNALYDVWITLHTYTSSDYWGEGTQVTVSS”, the “polyreactivity (PSR sort gate)” value is given as “low polyreactivity”.

For “QVQLVESGGGLVQAGGSLRLSCAASGSSFDVYTMGWYRQAPGKERELVAAINTGGGSTYYADSVKGRFTISRDNAKNTVYLQMNSLKPEDTAVYYCAASVYHYGPLYYWGQGTQVTVSS”, the “polyreactivity (PSR sort gate)” value is given as “low polyreactivity”.

Consider “QVQLVESGGGLVQAGGSLRLSCAASGSSFGRYVMGSYRPAPGKERELVAAIRSRGGSTYYADSVKGRFTISRDIAKNTVYLQMNSLKPEYTAVYYCNDVDRKPYRTYDYWGQGTQVTVSS”, for which the “polyreactivity (PSR sort gate)” value was “high polyreactivity”.

Regarding “QVQLVESGGGLVQAGGSLRLSCAASGSSFGWYGMGWYRQAPGKERELVASINWRGSSTYYADSVKGRFTISRDNSKNTVYLQMNSLKPEDTAVYYCATTRDWAYNYWGQGTQVTVSS”, the “polyreactivity (PSR sort gate)” value was “low polyreactivity”.

For the sequence “QVQLVESGGGLVQAGGSLRLSCAASGSSLDYYAMGWSRQAPGKERDLLAAITWSGGRTSYADSVTGRFTISRDNAKNTVYLQMNSLKPEDTAVYYGAAESFLYLLDRASGWQYEYWGQGTQVSVSS”, the “polyreactivity (PSR sort gate)” value was “low polyreactivity”.
